Measurements as given in patent publication US20200024330A1.

Tests used:
Experiment in all cases: cell-based or functional assay
[1] = biological target: HIV-1 Env of isolate MGRM-AG-009 (CRF_AG), on pseudovirus (HIV-1)
[2] = biological target: HIV-1 Env of isolate APV-6 (pseudovirus) (HIV-1 isolate APV-6, subtype B)
[3] = biological target: HIV-1 Env of isolate MGRM-C-008 (HIV-1)
[4] = biological target: HIV-1 Env of isolate MGRM-C-009 (HIV-1)
[5] = biological target: HIV-1 Env of isolate 92WR020 (HIV-1)
[6] = biological target: HIV-1 Env of isolate MGRM-C-007 (HIV-1)
[7] = biological target: HIV-1 JR-CSF Env N160K (HIV-1 (isolate JR-CSF)) (UniProt P20871)
[8] = biological target: HIV-1 Env of isolate MGRM-A-009 (clade A), on pseudovirus (HIV-1)
[9] = biological target: HIV-1 JR-CSF Env P470A (HIV-1 (isolate JR-CSF)) (UniProt P20871)
[10] = biological target: HIV-1 Env of isolate 92TH021 (CRF01_AE), on pseudovirus (HIV-1)
[11] = biological target: HIV-1 Env of isolate MGRM-D-019 (HIV-1)
[12] = biological target: HIV-1 Env of isolate MGRM-C-025 (HIV-1)
[13] = biological target: HIV-1 Env of isolate MGRM-AG-008 (CRF_AG), on pseudovirus (HIV-1)
[14] = biological target: HIV-1 Env of isolate MGRM-C-026 (HIV-1)
[15] = biological target: HIV-1 JR-CSF Env L125A (HIV-1 (isolate JR-CSF)) (UniProt P20871)
[16] = biological target: HIV-1 Env of isolate MGRM-AE-008 (CRF01_AE), on pseudovirus (HIV-1)
[17] = biological target: HIV-1 Env of isolate MGRM-G-016 (subtype G) (HIV-1)
[18] = biological target: HIV-1 Env of isolate MGRM-C-023 (pseudovirus) (HIV-1 isolate MGRM-C-023, subtype C)
[19] = biological target: HIV-1 APV_17 Env (pseudovirus) (HIV-1)
[20] = biological target: HIV-1 Env of isolate MG RM-D-024 (subtype D) (HIV-1)
[21] = biological target: HIV-1 CAAN.A2 Env (pseudovirus) (HIV-1)
[22] = biological target: HIV-1 Env of isolate MG RM-D-014 (subtype D) (HIV-1)
[23] = biological target: HIV-1 JRCSF Env (pseudovirus) (HIV-1) (UniProt P20871)
[24] = biological target: HIV-1 Env of isolate 92UG114 (subtype D) (HIV-1)
[25] = biological target: HIV-1 92UG005 envelope glycoprotein (Env) on pseudovirus (HIV-1)
[26] = biological target: HIV-1 MGRM-C-028 envelope glycoprotein (Env) on pseudovirus (HIV-1)
[27] = biological target: HIV-1 93UG077 envelope glycoprotein (Env) on pseudovirus (HIV-1)
[28] = biological target: HIV-1 Env of isolate MGRM-D-020 (clade D) (HIV-1)
[29] = biological target: HIV-1 92UG031 envelope glycoprotein (Env) (HIV-1)
[30] = biological target: HIV-1 MGRM-C-006 Env (HIV-1)
[31] = biological target: HIV-1 MGRM-A-013 envelope glycoprotein (Env) (HIV-1)
[32] = biological target: HIV-1 MGRM-C-004 Env (HIV-1)
[33] = biological target: HIV-1 MGRM-F1-010 Env (pseudovirus) (HIV-1)
[34] = biological target: HIV-1 Env of pseudovirus MGRM-Chronic-B-008, clade B (HIV-1)
[35] = biological target: HIV-1 MGRM-C-023 Env (HIV-1)
[36] = biological target: HIV-1 92RW008 envelope glycoprotein (Env) (HIV-1)
[37] = biological target: HIV-1 VLGCA1 envelope glycoprotein (Env) on pseudovirus (HIV-1)

5345_I01 (PGT-137) (antibody), sequence (VH): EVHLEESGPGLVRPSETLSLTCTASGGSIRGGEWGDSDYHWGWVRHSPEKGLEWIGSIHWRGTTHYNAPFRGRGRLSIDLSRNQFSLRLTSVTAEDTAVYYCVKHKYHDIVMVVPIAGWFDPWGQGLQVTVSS
5345_I01 (PGT-137) (antibody), sequence (VL): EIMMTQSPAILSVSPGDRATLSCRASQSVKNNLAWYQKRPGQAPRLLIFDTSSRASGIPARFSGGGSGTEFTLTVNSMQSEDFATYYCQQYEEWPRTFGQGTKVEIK
5329_C19 (PGT-136) (antibody), sequence (VH): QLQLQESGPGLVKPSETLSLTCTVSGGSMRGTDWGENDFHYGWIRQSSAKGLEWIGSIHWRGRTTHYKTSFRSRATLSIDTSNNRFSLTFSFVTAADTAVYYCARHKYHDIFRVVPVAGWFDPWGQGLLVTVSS
5329_C19 (PGT-136) (antibody), sequence (VL): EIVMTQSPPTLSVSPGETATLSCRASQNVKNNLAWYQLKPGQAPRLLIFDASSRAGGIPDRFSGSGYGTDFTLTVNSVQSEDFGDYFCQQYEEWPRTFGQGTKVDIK
PGT-141 (4964_G22; 4993_K13) (antibody), sequence (VH): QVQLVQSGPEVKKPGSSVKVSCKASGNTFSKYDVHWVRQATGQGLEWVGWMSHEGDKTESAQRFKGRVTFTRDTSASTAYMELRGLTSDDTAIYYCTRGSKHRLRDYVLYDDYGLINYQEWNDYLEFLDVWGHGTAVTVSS
PGT-141 (4964_G22; 4993_K13) (antibody), sequence (VL): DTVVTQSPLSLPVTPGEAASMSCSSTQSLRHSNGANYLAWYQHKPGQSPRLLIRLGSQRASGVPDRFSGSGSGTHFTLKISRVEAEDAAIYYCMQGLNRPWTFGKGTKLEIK
PGT-143 (4980_N08) (antibody), sequence (VH): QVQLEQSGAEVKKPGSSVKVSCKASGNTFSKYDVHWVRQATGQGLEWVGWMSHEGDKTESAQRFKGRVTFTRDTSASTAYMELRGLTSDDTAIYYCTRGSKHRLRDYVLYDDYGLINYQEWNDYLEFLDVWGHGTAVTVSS
PGT-143 (4980_N08) (antibody), sequence (VL): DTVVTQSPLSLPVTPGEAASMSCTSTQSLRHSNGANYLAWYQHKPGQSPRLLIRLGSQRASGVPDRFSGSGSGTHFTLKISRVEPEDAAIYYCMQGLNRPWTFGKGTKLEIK
PGT-142 (4995_E20) (antibody), sequence (VH): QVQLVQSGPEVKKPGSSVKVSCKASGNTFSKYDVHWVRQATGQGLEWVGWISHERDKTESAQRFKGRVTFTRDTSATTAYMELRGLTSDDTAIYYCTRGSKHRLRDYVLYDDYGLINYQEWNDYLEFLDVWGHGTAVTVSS
PGT-144 (4970_K22) (antibody), sequence (VH): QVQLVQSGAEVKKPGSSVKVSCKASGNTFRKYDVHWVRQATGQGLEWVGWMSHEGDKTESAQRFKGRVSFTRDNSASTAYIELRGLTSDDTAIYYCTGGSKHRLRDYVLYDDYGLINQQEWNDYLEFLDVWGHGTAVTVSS
PGT-144 (4970_K22) (antibody), sequence (VL): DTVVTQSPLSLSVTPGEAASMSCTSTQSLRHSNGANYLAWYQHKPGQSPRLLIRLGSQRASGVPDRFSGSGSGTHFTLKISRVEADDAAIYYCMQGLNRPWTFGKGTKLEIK

Substance | IC50, single-round pseudovirus neutralization [1] [µg/mL] | IC50 (µg/mL) neutralization [2] [µg/mL] | IC50 [3] [µg/mL] | IC50 [4] [µg/mL] | neutralization IC50 [5] [µg/mL] | IC50 [6] [µg/mL] | Fold IC50 increase relative to wild-type [7] [fold] | IC50, single-round pseudovirus neutralization [8] [µg/mL] | Fold IC50 increase relative to wild-type [9] [fold] | IC50, single-round pseudovirus neutralization [10] [µg/mL] | IC50 [11] [µg/mL] | IC50 [12] [µg/mL] | IC50, single-round pseudovirus neutralization [13] [µg/mL] | IC50 [14] [µg/mL] | Fold IC50 increase relative to wild-type [15] [fold] | IC50, single-round pseudovirus neutralization [16] [µg/mL] | neutralization IC50 [17] [µg/mL] | also measured
5136_H01 (PGT-131) (antibody) | > 50 | > 50 | > 50 | > 50 | 0.168 | > 50 | 0.4 | 0.035 | 1 | 0.014 | > 50 | > 50 | > 50 | 1.67 | 2.5 | > 50 | – | –
PGT-141 (4964_G22; 4993_K13) (antibody) | – | – | – | – | – | – | – | – | – | – | – | – | – | – | – | – | 4.69 | –
5145_B14 (PGT-127) (antibody) | – | – | – | – | – | – | 0.8 | – | 1 | – | – | – | – | – | 1.4 | – | – | IC50 (µg/mL) neutralization [18]: 1.08 µg/mL; IC50, pseudovirus neutralization [19]: 10.4 µg/mL; IC50 (µg/mL), pseudovirus neutralization [20]: 1.95 µg/mL; IC50, pseudovirus neutralization [21]: 0.371 µg/mL; IC50 (µg/mL), pseudovirus neutralization [22]: 0.393 µg/mL; IC50, pseudovirus neutralization [23]: 0.018 µg/mL; IC50 (µg/mL), pseudovirus neutralization [24]: 7.09 µg/mL
5329_C19 (PGT-136) (antibody) | > 50 | > 50 | > 50 | > 50 | 2.33 | > 50 | – | > 50 | – | > 50 | > 50 | > 50 | > 50 | 0.006 | – | > 50 | – | –
PGT-121 (antibody) | – | – | – | – | – | – | – | – | – | – | – | – | – | – | – | – | – | IC50 (µg/mL), pseudovirus neutralization [5]: 0.004 µg/mL; Primary Neutralization Index (B cell culture well 4838 L06) [14]: 996; Primary Neutralization Index (B cell culture well 4873 E03) [14]: 371
5147_N06 (PGT-130) (antibody) | 9.46 | > 50 | 7.28 | > 50 | 0.039 | > 50 | 3.4 | 0.308 | 2.4 | 0.009 | > 50 | > 50 | > 50 | 0.036 | 2.5 | > 50 | – | IC50 (ug/ml), neutralizing activity [25]: 0.474 µg/mL; IC50 (ug/ml), neutralizing activity [26]: > 10 µg/mL; IC50 (ug/ml), neutralizing activity [27]: > 10 µg/mL
4838_L06 (PGT-121) (antibody) | – | – | – | – | – | – | – | – | – | – | – | – | – | – | – | – | – | IC50 (µg/mL) neutralization [18]: 0.017 µg/mL; IC50, pseudovirus neutralization [19]: 0.066 µg/mL; IC50 (µg/mL), pseudovirus neutralization [20]: 0.038 µg/mL; IC50, pseudovirus neutralization [21]: 0.011 µg/mL; IC50 (ug/ml), neutralizing activity [25]: > 10 µg/mL; IC50 (µg/mL), pseudovirus neutralization [22]: 0.009 µg/mL; IC50, pseudovirus neutralization [23]: 0.027 µg/mL; neutralization IC90 [23]: 0.223 µg/mL; neutralization IC95 [23]: 0.417 µg/mL; IC50 (µg/mL), pseudovirus neutralization [24]: 0.004 µg/mL
1496_C09 (PG9) (TCN-109) (antibody) | – | – | – | – | – | – | – | – | – | – | – | – | – | – | – | – | 1.36 | IC50 (µg/ml), pseudovirus neutralization [28]: 2.03 µg/mL; IC50 (µg/ml), pseudovirus neutralization [29]: 3.08 µg/mL; IC50 [30]: 0.23 µg/mL; IC50 (µg/ml), pseudovirus neutralization [31]: 0.16 µg/mL; IC50 [32]: 1.18 µg/mL; IC50 (ug/ml), neutralizing activity [26]: 0.121 µg/mL; IC50 neutralization [26]: 0.121 µg/mL; IC80, neutralization [26]: 0.645 µg/mL; IC90, neutralization [26]: 1.65 µg/mL; IC95, neutralization [26]: 3.71 µg/mL; IC50 (µg/ml), pseudovirus neutralization [33]: 0.03 µg/mL; IC50 (µg/ml), pseudovirus neutralization [34]: 6.66 µg/mL; IC50 [35]: 0.51 µg/mL; IC50 (µg/mL), pseudovirus neutralization [11]: 0.038 µg/mL; IC50 (µg/ml), pseudovirus neutralization [36]: 0.01 µg/mL; IC50 (µg/ml), pseudovirus neutralization [37]: 0.07 µg/mL
4877_D15 (PGT-122) (antibody) | – | – | – | – | – | – | – | – | – | – | – | – | – | – | – | – | – | IC50 (µg/mL) neutralization [18]: 0.027 µg/mL; IC50, pseudovirus neutralization [19]: 0.25 µg/mL; IC50 (µg/mL), pseudovirus neutralization [20]: 0.185 µg/mL; IC50, pseudovirus neutralization [21]: 0.011 µg/mL; IC50 (ug/ml), neutralizing activity [25]: > 10 µg/mL; IC50 (ug/ml), neutralizing activity [26]: 2.06 µg/mL; IC50 (µg/mL), pseudovirus neutralization [22]: 0.012 µg/mL; IC50 (ug/ml), neutralizing activity [27]: 0.191 µg/mL; IC50, pseudovirus neutralization [23]: 0.057 µg/mL; IC50 (µg/mL), pseudovirus neutralization [24]: 0.011 µg/mL
5343_B08 (PGT-135) (antibody) | > 50 | > 50 | > 50 | > 50 | 0.067 | > 50 | 7.7 | > 50 | 0.8 | > 50 | > 50 | > 50 | > 50 | 0.004 | 0.9 | > 50 | – | –
5141_B17 (PGT-126) (antibody) | – | – | – | – | – | – | 0.5 | – | 2.7 | – | – | – | – | – | 1.2 | – | – | IC50 (µg/mL) neutralization [18]: 0.065 µg/mL; IC50, pseudovirus neutralization [19]: 0.353 µg/mL; IC50 (µg/mL), pseudovirus neutralization [20]: 0.376 µg/mL; IC50, pseudovirus neutralization [21]: 0.273 µg/mL; IC50 (ug/ml), neutralizing activity [25]: 0.0181 µg/mL; IC50 (ug/ml), neutralizing activity [26]: 0.283 µg/mL; IC50 (µg/mL), pseudovirus neutralization [22]: 0.03 µg/mL; IC50 (ug/ml), neutralizing activity [27]: 0.0256 µg/mL; IC50 [23]: 0.0061 µg/mL; IC50, pseudovirus neutralization [23]: 0.008 µg/mL; IC80 [23]: 0.018 µg/mL; IC90 [23]: 0.0339 µg/mL; IC95 [23]: 0.0608 µg/mL; IC50 (µg/mL), pseudovirus neutralization [24]: 0.038 µg/mL
PGT-143 (4980_N08) (antibody) | – | – | – | – | – | – | – | – | – | – | – | – | – | – | – | – | 7.6 | –
PGT-122 (antibody) | – | – | – | – | – | – | – | – | – | – | – | – | – | – | – | – | – | IC50 (µg/mL), pseudovirus neutralization [5]: 0.009 µg/mL
PGT-142 (4995_E20) (antibody) | – | – | – | – | – | – | – | – | – | – | – | – | – | – | – | – | 8.17 | –
5345_I01 (PGT-137) (antibody) | > 50 | > 50 | > 50 | > 50 | 0.005 | > 50 | – | > 50 | – | > 50 | > 50 | > 50 | > 50 | 0.011 | – | > 50 | – | –
PGV04 (antibody) | – | – | – | – | – | – | – | – | – | – | – | – | – | – | – | – | 0.019 | IC50 (µg/mL), pseudovirus neutralization [11]: 0.35 µg/mL
5114_A19 (PGT-128) (antibody) | 0.021 | 0.007 | 0.373 | > 50 | 0.005 | 0.111 | 1 | 0.005 | 0.6 | 0.01 | > 50 | 10.5 | 0.668 | 0.007 | 2.9 | > 50 | – | –
PGT-144 (4970_K22) (antibody) | – | – | – | – | – | – | – | – | – | – | – | – | – | – | – | – | > 50 | –
VRC01 (antibody) | – | – | – | – | – | – | – | – | – | – | – | – | – | – | – | – | 0.063 | IC50, pseudovirus neutralization [11]: 0.119 µg/mL
